The target in assay [1] is T1, purified human elastase (HE) (Homo sapiens, UniProt P08246).
T1 sequence (P08246 30-267): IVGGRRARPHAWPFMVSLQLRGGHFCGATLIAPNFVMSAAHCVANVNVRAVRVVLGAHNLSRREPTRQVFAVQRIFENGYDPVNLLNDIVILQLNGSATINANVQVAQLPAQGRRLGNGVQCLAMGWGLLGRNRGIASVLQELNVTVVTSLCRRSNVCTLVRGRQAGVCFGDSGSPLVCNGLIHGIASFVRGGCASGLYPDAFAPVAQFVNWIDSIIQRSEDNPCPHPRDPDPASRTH
Kind of assay: 125I-Fibronectin assay with purified human elastase. The conditions noted are these: enzyme concentration 4 nM, FIG. 3. Format: biochemical.
Procedure: This assay is designed to model the degradation of connective tissue. […] Briefly, purified human plasma fibronectin (fn) is radiolabeled with ^125 I using Enzymobeads and conventional procedures. The desalted is diluted with fn to yield ca. cpm/ug. This material is further diluted with pH 9.6 barbital buffer and 200 ul (30 ug fn, 50000 cpm) is pipetted into the wells of a flat bottomed 96 well microtiter plate. The plates are dried for about 24 hours at 37° C. and unbound fn is removed with 2 washes of phosphate buffered saline (PBS). The plates are stored at 4° C. and are stable for at least 2 weeks.
For an assay each coated well is filled with a total volume of 200 μl. All measurements are carried out at optimal pH and buffer conditions. After addition of proteolytic activity with or without inhibitor the plate is incubated at 37° C. for 3 hours. The well contents are centrifuged and a 100 μl aliquot is counted for 1251gamma radiation. Some assays employed elastase activity derived from freshly prepared neutrophils (PMN). ln this case an activating agent to stimulate the PMN is present in the well and the PMN is added last. A standard curve showing the linearity of the response to the amount of purified human elastase (HE) added is obtained concurrently with each assay.

Another assay concerns the target T2, bovine trypsin (Bos taurus, UniProt P00760).
T2 sequence (P00760 24-246): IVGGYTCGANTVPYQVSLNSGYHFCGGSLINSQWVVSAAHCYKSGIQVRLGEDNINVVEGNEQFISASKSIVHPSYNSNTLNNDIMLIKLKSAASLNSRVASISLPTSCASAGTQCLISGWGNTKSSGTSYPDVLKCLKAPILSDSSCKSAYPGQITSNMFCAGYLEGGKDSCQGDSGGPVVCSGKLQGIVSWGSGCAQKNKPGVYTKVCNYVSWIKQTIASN
The experiment in a line: Trypsin assay (spectrophotometric, N-Benzoyl-L-arginine p-nitroanilide substrate). The class given is biochemical. The conditions noted are these: inhibitor/protease ratio between about 10/1 and 50/1. How it is done:
(§1) The inhibitory activity of the polypeptides of the present invention can be easily assayed using in vitro assays. In these types of spectrophotometric assays the activity of the serine protease is measured toward an appropriate p-nitroanilide substrate in the presence and absence of the peptide inhibitor. The enzyme catalyzed hydrolysis of the peptide p-nitroanilide substrate produces p-nitroanaline which results in an increase in absorbance which is monitored in the range of 405 to 410 nm. The rate of increase in absorbance is a measure of the enzymatic activity and the decrease in this rate relative to a suitable control is used to ascertain inhibition. The general assay procedure and details of the particular assays employed in the examples are provided in the Appendix following the examples. It is also possible to test the polypeptides in a functionally oriented assay that emulates in vivo conditions. Such an inhibition assay for elastase is also described in the Appendix.
(§2) Generalized Protocol Spectrophotometric Assays:
(§3) (1) Pipette 100 μl of enzyme solution into a disposable polystyrene cuvette (1 cm optical path length).
(§4) (2) Add (1900-X) μl of bufferto the cuvette, where X is the volume of test solution in microliters that is added in the next step.
(§5) Add X μl of test solution to the cuvette, where X ranges from 0 μl for the control to a maximum of about 500 μl. Incubate the solution for a period of 1 to 5 minutes at ambient temperature.
(§6) (4) Add 100 μl of substrate solution to the cuvette. Mix the contents by covering the cuvette with a piece of paraffin film and repeatedly inverting for a period of 5 to 15 seconds.
(§7) (5) Record the change in absorbance for about 5 minutes at either 405 or 410 nm, depending on the assay, with a spectrophotometer equipped with a suitable recording device.
(§8) The percent inhibition is calculated from the formula [formula] where (ΔA/min) is the initial rate of absorbance change.
(§9) (7) For more accurate quantitative determinations temperature control of the cuvette holders and the reagent solutions can be instituted.
(§10) (8) The test solution can be crude oxidized peptide prepared as described above, fractions from a chromatographic separation or purified polypeptides.
(A) Buffer Solution - Triethanolamine buffer consisting of 200 mM triethanolamine, 20 mM CaCl2, pH 7.8
(B) Substrate solution - Dissolve 50 mg of N-Benzoyl-L-arginine p-nitroanilide in 50 ml of water. Sonicate for 5 to 10 minutes to completely dissolve the solid material.
(C) Enzyme solution - Dissolve 1 mg of bovine trypsin in 10 ml of 0.001N HCl stored on ice during the assay.
(D) Test Solution - See general protocol, number 8.
Procedure: Use the above solutions in the general protocol described above.

Assay [2] deals with T3, PMN-derived human elastase activity (Homo sapiens, UniProt P08246).
T3 construct: Some assays employed elastase activity derived from freshly prepared neutrophils (PMN); endogenous in cells; host or cells: freshly prepared, stimulated neutrophils (PMN)
T3 sequence (P08246 30-267): T1 sequence (P08246 30-267)
The experiment in a line: 125I-Fibronectin assay with stimulated PMN as source of elastase activity. The class given is cell-based. The conditions noted are these: HLE equivalent of 4 nM, FIG. 3.
Procedure: The data points represent the mean of several (n=3 to 9) replicates compared to the control that contained no inhibitor.
This assay is designed to model the degradation of connective tissue. The assay is carried out essentially as described by Campbell, et al. (J. Clin. Invest., 1982, 70:845-52). Briefly, purified human plasma fibronectin (fn) is radiolabeled with ^125 I using Enzymobeads and conventional procedures. The desalted is diluted with fn to yield ca. cpm/ug. This material is further diluted with pH 9.6 barbital buffer and 200 ul (30 ug fn, 50000 cpm) is pipetted into the wells of a flat bottomed 96 well microtiter plate. The plates are dried for about 24 hours at 37° C. and unbound fn is removed with 2 washes of phosphate buffered saline (PBS). The plates are stored at 4° C. and are stable for at least 2 weeks.
For an assay each coated well is filled with a total volume of 200 μl. All measurements are carried out at optimal pH and buffer conditions. After addition of proteolytic activity with or without inhibitor the plate is incubated at 37° C. for 3 hours. The well contents are centrifuged and a 100 μl aliquot is counted for 1251gamma radiation. Some assays employed elastase activity derived from freshly prepared neutrophils (PMN). ln this case an activating agent to stimulate the PMN is present in the well and the PMN is added last. […]

A further assay deals with bovine chymotrypsin (Bos taurus, UniProt P00766). Kind of assay: Chymotrypsin assay (spectrophotometric, p-nitroanilide substrate). Format: biochemical. The conditions noted are these: inhibitor/protease ratio between about 10/1 and 50/1. The method, then: as §1, §2, §3, §4, §5, §6, §7, §8, §9, §10
(A) Buffer solution - triethanolamine buffer- See trypsin assay.
(B) Substrate Solution - Dissolve 25 mg of 3-carbomethoxypropionyl-L-arginyl-L-prolyl-L-tyrosine p-nitroanilide (Product No. S-2586, KabiVitrum AB, Stockholm, Sweden) in 23.6 ml of water
(C) Enzyme solution - Dissolve 1 mg of bovine chymotrypsin in 4 ml of 0.001N HCl. Prepare the final dilution by combining 0.1 ml of the stock chymotrypsin solution and 10 ml of 0.001N HCl. Store on ice or at 4° C.
Procedure: Use the above solutions in the general protocol
(2) See note 1 of the cathepsin G assay.
(3) 0.1M Tris-HCl, pH 7.8, 20 mM CaCl2, 0.05% triton X-100 can be substituted for the triethanolamine buffer.

Another assay has as its target T4, purified HE (Homo sapiens, UniProt P08246).
T4 sequence (P08246 30-267): T1 sequence (P08246 30-267)
Kind of assay: 3H-Elastin assay with purified HE. The class given is biochemical. The conditions noted are these: FIG. 4. How it is done: The inhibition of elastolysis by peptide 8 was investigated using the ^3 H-elastin assay and purified HE.
Another, yet less sensitive, assay employs radiolabelled elastin as the solid substrate in order to imitate degradation of connective tissue.
Radiolabeling of bovine neck ligament elastin is carried out with tritiated sodium borohydride as described by Stone, et al. (Anal. Biochem., 1977, 80:572-577). Elastin coated microtiter plates are prepared essentially as described above for the fibronectin plates. The assay is run similarly except that the supernatant is added to a scintillation cocktail for counting. The linearity of the responses to purified HE is also tested.

With “RVCPVILMKCKKDSDCLAECVCLEHGYCG (RVCPVILMKCKKDSDCLAECVCLEHGYCG) [Peptide 8]”, the “inhibition of 125I fibronectin degradation” value was “nearly the same inhibitory profile against purified human elastase (HE) and PMN-derived HE activity” in assay [1]; “nearly the same inhibitory profile against purified human elastase (HE) and PMN-derived HE activity” in assay [2]. In addition, the “Inhibitory Activity Trypsin” value in the assay with bovine trypsin is recorded as “- (Represents less than 10% inhibition)”. Besides, the “Inhibitory Activity Chymotrypsin” value in the assay with bovine chymotrypsin is given as “- (Represents less than 10% inhibition)”. Besides, the inhibition of elastolysis entry in the assay with purified HE is reported as “equally effecive for these two connective tissue substrates”.

Values taken from patent US4829052A, “Serine protease inhibitors” (Monsanto Company, priority 1987, dated 1989).
